This assay concerns the target hamster ACE2 ectodomain with human IgG1 Fc tag (hamster). The assay can be described thus: BLI. On the technique in general: BLI is a label-free optical method that tracks binding on a fibre tip over time.

In paper PMC8828469 one finds kon data, which are given here for one substance.

“And” between values parts separate entries of the source, which are not always exact repeats. Equal values may be shown once.

As for “SARS-CoV-2 spike protein of Alpha (B.1.1.7), S^Alpha, recombinant trimeric ectodomain (from UniProt P0DTC2 14-1208) (domain or fragment)”, the kon – broadly, a measure of how fast the partners come together – is 111000 M⁻¹ s⁻¹ and 90700 M⁻¹ s⁻¹ and 98000 M⁻¹ s⁻¹.
